Data on 43 molecules can be found in patent US20110118447A1.

Positions count from the first letter of the chain named. In names and notes the source's numbering stands.

The chains are these.
B1: C5A (XPA23) VL N30Q (antibody, V domains shown)
VH: EVQLLESGGGLVQPGGSLRLSCAASGFTFSKYFMFWVRQAPGKGLEWVSVISPSGGMTRYADSVKGRFTISRDNSKNTLYLQMNSLRAEDTAVYYCARVGYGGNSDYWGQGTLVTVSS
VL: DIQMTQSPSSVSASVGDRLTIICRASQDIQRWLAWYQQTPGNAPKLLIHSATSLQSGVPSRFSGSGSGTDFTLTINSLQPEDFATYYCQQADSFPLTFGGGTKVEIK
B2: C5A (XPA23) VL R31Q (antibody, V domains shown)
VH: B1 VH
VL: B1 VL with Q30N, R31Q
B3: C5A (XPA23) VL N30Y (antibody, V domains shown)
VH: B1 VH
VL: B1 VL with Q30Y
B4: C5A (XPA23) VL R31T (antibody, V domains shown)
VH: B1 VH
VL: B1 VL with Q30N, R31T
B5: C5A (XPA23) VL T52R (antibody, V domains shown)
VH: B1 VH
VL: B1 VL with Q30N, T52R
B6: C5A (XPA23) VL T52Q (antibody, V domains shown)
VH: B1 VH
VL: B1 VL with Q30N, T52Q
B7: C5A (XPA23) VL A51S (antibody, V domains shown)
VH: B1 VH
VL: B1 VL with Q30N, A51S
B8: C5A (XPA23) VL T52N (antibody, V domains shown)
VH: B1 VH
VL: B1 VL with Q30N, T52N
B9: C5A (XPA23) VL T52Y (antibody, V domains shown)
VH: B1 VH
VL: B1 VL with Q30N, T52Y
B10: C5A (XPA23) VL H49N (antibody, V domains shown)
VH: B1 VH
VL: B1 VL with Q30N, H49N
B11: C5A (XPA23) VL R31K (antibody, V domains shown)
VH: B1 VH
VL: B1 VL with Q30N, R31K
B12: C5A (XPA23) VL S53R (antibody, V domains shown)
VH: B1 VH
VL: B1 VL with Q30N, S53R
B13: C5A (XPA23) VL A51E (antibody, V domains shown)
VH: B1 VH
VL: B1 VL with Q30N, A51E
B14: C5A (XPA23) VL T52E (antibody, V domains shown)
VH: B1 VH
VL: B1 VL with Q30N, T52E
B15: C5A (XPA23) VL S50N (antibody, V domains shown)
VH: B1 VH
VL: B1 VL with Q30N, S50N
B16: C5A (XPA23) VL R31D (antibody, V domains shown)
VH: B1 VH
VL: B1 VL with Q30N, R31D
B17: C5A (XPA23) VL A51H (antibody, V domains shown)
VH: B1 VH
VL: B1 VL with Q30N, A51H
B18: C5A (XPA23) VL A51N (antibody, V domains shown)
VH: B1 VH
VL: B1 VL with Q30N, A51N
B19: C5A (XPA23) VL A51T (antibody, V domains shown)
VH: B1 VH
VL: B1 VL with Q30N, A51T
B20: C5A (XPA23) VL H49K (antibody, V domains shown)
VH: B1 VH
VL: B1 VL with Q30N, H49K
B21: C5A (XPA23) VL T52D (antibody, V domains shown)
VH: B1 VH
VL: B1 VL with Q30N, T52D
B22: C5A (XPA23) VL A51Y (antibody, V domains shown)
VH: B1 VH
VL: B1 VL with Q30N, A51Y
B23: C5A (XPA23) VL T52S (antibody, V domains shown)
VH: B1 VH
VL: B1 VL with Q30N, T52S
B24: C5A (XPA23) VL S50Q (antibody, V domains shown)
VH: B1 VH
VL: B1 VL with Q30N, S50Q
B25: C5A (XPA23) VL R31S (antibody, V domains shown)
VH: B1 VH
VL: B1 VL with Q30N, R31S
B26: C5A (XPA23) VL S50K (antibody, V domains shown)
VH: B1 VH
VL: B1 VL with Q30N, S50K
B27: C5A (XPA23) VL S53T (antibody, V domains shown)
VH: B1 VH
VL: B1 VL with Q30N, S53T
B28: C5A (XPA23) VL S53E (antibody, V domains shown)
VH: B1 VH
VL: B1 VL with Q30N, S53E
B29: C5A (XPA23) VL H49Y (antibody, V domains shown)
VH: B1 VH
VL: B1 VL with Q30N, H49Y
B30: C5A (XPA23) VL S50H (antibody, V domains shown)
VH: B1 VH
VL: B1 VL with Q30N, S50H
B31: C5A (XPA23) VL R31N (antibody, V domains shown)
VH: B1 VH
VL: B1 VL with Q30N, R31N
B32: C5A (XPA23) VL H49D (antibody, V domains shown)
VH: B1 VH
VL: B1 VL with Q30N, H49D
B33: C5A (XPA23) VL S50T (antibody, V domains shown)
VH: B1 VH
VL: B1 VL with Q30N, S50T
B34: C5A (XPA23) VL T52K (antibody, V domains shown)
VH: B1 VH
VL: B1 VL with Q30N, T52K
B35: C5A (XPA23) VL H49S (antibody, V domains shown)
VH: B1 VH
VL: B1 VL with Q30N, H49S
B36: C5A (XPA23) VL T52H (antibody, V domains shown)
VH: B1 VH
VL: B1 VL with Q30N, T52H
B37: C5A (XPA23) VL A51D (antibody, V domains shown)
VH: B1 VH
VL: B1 VL with Q30N, A51D
B38: C5A (XPA23) VL S53K (antibody, V domains shown)
VH: B1 VH
VL: B1 VL with Q30N, S53K
B39: C5A (XPA23) VL S50Y (antibody, V domains shown)
VH: B1 VH
VL: B1 VL with Q30N, S50Y
B40: C5A (XPA23) VL S50E (antibody, V domains shown)
VH: B1 VH
VL: B1 VL with Q30N, S50E
B41: C5A (XPA23) VL H49R (antibody, V domains shown)
VH: B1 VH
VL: B1 VL with Q30N, H49R
B42: C5A (XPA23) VL A51Q (antibody, V domains shown)
VH: B1 VH
VL: B1 VL with Q30N, A51Q
B43: C5A (XPA23) VL A51R (antibody, V domains shown)
VH: B1 VH
VL: B1 VL with Q30N, A51R

In this experiment the target is binding partner of C5A (XPA23). As to the kind of experiment: Biacore K-off.
Take B1: the fold difference in affinity vs original stood at 0.6 fold.
With B2 the figure was 0.27 fold; with B3, 1.4 fold.
The same measure for B4: 0.24 fold.
B5: the fold difference in affinity vs original came out at 3.37 fold.
With B6 the figure was 0.83 fold.
As for B7, the fold difference in affinity vs original is 0.95 fold.
The same measure for B8: 0.83 fold; for B9: 1.01 fold; for B10: 0.31 fold.
As for B11, the fold difference in affinity vs original is 1.18 fold.
The same measure for B12: 3.29 fold.
B13: the fold difference in affinity vs original is 0.29 fold.
On to B14, for which the fold difference in affinity vs original was 0.61 fold.
With B15 the figure was 0.25 fold; with B16, 11.1 fold.
With B17, the fold difference in affinity vs original was 0.61 fold.
Turning to B18, the fold difference in affinity vs original was found to be 0.3 fold.
Consider B19, for which the fold difference in affinity vs original amounted to 0.76 fold.
In the case of B20, the fold difference in affinity vs original turned out to be 0.1 fold.
With B21 the figure was 0.72 fold; with B22, 0.45 fold.
With B23 the figure was 0.78 fold.
The same measure for B24: 0.21 fold; for B25: 0.44 fold.
Regarding B26, the fold difference in affinity vs original was 0.1 fold.
With B27 the figure was 0.95 fold.
As for B28, the fold difference in affinity vs original was determined as 1.13 fold.
With B29, the fold difference in affinity vs original was determined as 0.52 fold.
The same measure for B30: 0.05 fold; for B31: 0.38 fold.
Consider B32, for which the fold difference in affinity vs original was 0.11 fold.
On to B33, for which the fold difference in affinity vs original came to 0.87 fold.
The same measure for B34: 3.23 fold; for B35: 0.14 fold.
The same measure for B36: 0.91 fold.
The same measure for B37: 0.13 fold; for B38: 4.07 fold; for B39: 0.05 fold.
As for B40, the fold difference in affinity vs original is 0.02 fold.
The same measure for B41: 0.21 fold; for B42: 0.24 fold; for B43: 0.18 fold.
